The record followed here is patent US20250092424A1 (University of Washington, published 2025).

This assay has as its target T1, design #8 (v-SNARE-like protein, v-SP; MPNN-redesigned VAMP2), SEQ ID NO: 8.
T1 chain: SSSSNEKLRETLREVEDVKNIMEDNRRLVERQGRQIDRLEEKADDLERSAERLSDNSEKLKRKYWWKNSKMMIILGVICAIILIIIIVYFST
The assay can be described thus: cell-based or functional assay.

B1: design #94 (single-chain t-SNARE-like protein, sc-t-SP), SEQ ID NO: 94 (designed binder)
chain: SEREKEIDEGLDRVSEIVKELKKMAEEMRRMIEEQGRRIERIEEKAEEAKEKIEEANERAEKLLKDPGGSGGSEELKKLEKEGEKLKELVEELDREIKELKEGMERLREMFEEAAKLSEEALEIMRRTRKLSEEELEEAKQKAKEQEKEKALKEKGGSGGSGGSEKVKRELAQIEERHQQILELEEKIKELLEMFKELSEKIEEQGQKIDRIEDKVSKAKEHVEKGVEDTKKAVKYQSKARRKKIMIIICCVILGIVIASTVGGIFA
For the molecule B1, the “cell-cell fusion assay (reporter luciferase), fold over parental SNARE complex” value is 10 fold.
